Laboratory results from patent publication US10556936B2, “Immunogenic proteins and fragments thereof from allergenic mites” (ALK-ABELLÓ A/S, priority 2016, dated 2020).

Legend:
Format in all cases: cell-based, human
[1] = test system: T cell lines obtained from HDM allergic individuals and non-allergics; assay: In vitro T cell proliferation test in T cell lines (Example 3); conditions: 0.5 or 2 ug/ml, 72 h; for % responders of in-vitro T cell proliferation test, Allergic: T cell lines from HDM allergic individuals (n=30); for % responders of in-vitro T cell proliferation test, Non-allergics: T cell lines from non-allergics (n=8)
Summary of the method: (§1)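 Freshly isolated PBMC (5×10^6/ml) from mite-allergic patients or non-allergics cultured 5 days with test protein up to 10 ug/ml; IFN-gamma, IL-9, IL-10, IL-17, IL-31 in supernatants by multiplex immunoassay. T cell lines, raised 3 weeks on HDM extract, tested at 0.5 or 2 ug/ml protein in 72 h proliferation assay.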

[2] = test system: PBMC cells obtained from mite allergic patients and non-allergics; assay: Ex vivo stimulation of PBMC: cytokine production (IFN-gamma, IL-9, IL-10, IL-17, IL-31)
Summary of the method: as §1

[3] = test system: basophils in whole blood from HDM allergic donors; assay: Basophil Activation Test (BAT); conditions: blood from HDM allergic individuals (n=14)
Summary of the method: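 Basophil activation was read by flow cytometry as increased surface activation markers. The stimulus was a 1 h exposure of blood from 14 HDM-allergic donors to test proteins or major mite allergens at graded concentrations (e.g. 1–1000 ng/ml).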

B1: Derf2: major house dust mite allergen, group 2, Dermatophagoides farinae; control (protein, UniProt Q00855 18-146, looked up)
Mite group 2 allergen Der f 2: DQVDVKDCANNEIKKVMVDGCHGSDPCIIHRGKPFTLEALFDANQNTKTAKIEIKASLDGLEIDVPGIDTNACHFMKCPLVKGQQYDIKYTWNVPKIAPKSENVVVTVKLIGDNGVLACAIATHGKIRD
- % responders of in-vitro T cell proliferation test, Allergic [1]: 67%
- % responders of in-vitro T cell proliferation test, Non-allergics [1]: 14%
- % HDM allergic individuals with cytokine production in ex-vivo T cell assay IL-5 [2]: 63%
- % HDM allergic individuals with cytokine production in ex-vivo T cell assay IL-9 [2]: 50%
- % HDM allergic individuals with cytokine production in ex-vivo T cell assay IL-10 [2]: 81%
- % HDM allergic individuals with cytokine production in ex-vivo T cell assay IL-13 [2]: 69%
- % HDM allergic individuals with cytokine production in ex-vivo T cell assay IL-17 [2]: 13%
- % HDM allergic individuals with cytokine production in ex-vivo T cell assay IL-31 [2]: 6%
- % HDM allergic individuals with cytokine production in ex-vivo T cell assay INF-g [2]: 6%
- % non-allergic individuals with cytokine production in ex-vivo T cell assay IL-5 [2]: 0%
- % non-allergic individuals with cytokine production in ex-vivo T cell assay IL-9 [2]: 0%
- % non-allergic individuals with cytokine production in ex-vivo T cell assay IL-10 [2]: 33%
- % non-allergic individuals with cytokine production in ex-vivo T cell assay IL-13 [2]: 0%
- % non-allergic individuals with cytokine production in ex-vivo T cell assay IL-17 [2]: 67%
- % non-allergic individuals with cytokine production in ex-vivo T cell assay IL-31 [2]: 0%
- % non-allergic individuals with cytokine production in ex-vivo T cell assay INF-g [2]: 17%
- # of individuals of 14 with positive BAT test ([3]; 1 ng/ml): 13
- # of individuals of 14 with positive BAT test ([3]; 10 ng/ml): 13
- # of individuals of 14 with positive BAT test ([3]; 100 ng/ml): 13
- # of individuals of 14 with positive BAT test ([3]; 1000 ng/ml): 13

B2: Derp1: major house dust mite allergen, group 1, Dermatophagoides pteronyssinus; control (protein, UniProt P08176 99-320, looked up)
Peptidase 1: TNACSINGNAPAEIDLRQMRTVTPIRMQGGCGSCWAFSGVAATESAYLAYRNQSLDLAEQELVDCASQHGCHGDTIPRGIEYIQHNGVVQESYYRYVAREQSCRRPNAQRFGISNYCQIYPPNVNKIREALAQTHSAIAVIIGIKDLDAFRHYDGRTIIQRDNGYQPNYHAVNIVGYSNAQGVDYWIVRNSWDTNWGDNGYGYFAANIDLMMIEEYPYVVIL
- % responders of in-vitro T cell proliferation test, Allergic [1]: 73%
- % responders of in-vitro T cell proliferation test, Non-allergics [1]: 13%
- % HDM allergic individuals with cytokine production in ex-vivo T cell assay IL-5 [2]: 50%
- % HDM allergic individuals with cytokine production in ex-vivo T cell assay IL-9 [2]: 6%
- % HDM allergic individuals with cytokine production in ex-vivo T cell assay IL-10 [2]: 50%
- % HDM allergic individuals with cytokine production in ex-vivo T cell assay IL-13 [2]: 50%
- % HDM allergic individuals with cytokine production in ex-vivo T cell assay IL-17 [2]: 6%
- % HDM allergic individuals with cytokine production in ex-vivo T cell assay IL-31 [2]: 0%
- % HDM allergic individuals with cytokine production in ex-vivo T cell assay INF-g [2]: 0%
- % non-allergic individuals with cytokine production in ex-vivo T cell assay IL-5 [2]: 0%
- % non-allergic individuals with cytokine production in ex-vivo T cell assay IL-9 [2]: 0%
- % non-allergic individuals with cytokine production in ex-vivo T cell assay IL-10 [2]: 17%
- % non-allergic individuals with cytokine production in ex-vivo T cell assay IL-13 [2]: 0%
- % non-allergic individuals with cytokine production in ex-vivo T cell assay IL-17 [2]: 17%
- % non-allergic individuals with cytokine production in ex-vivo T cell assay IL-31 [2]: 0%
- % non-allergic individuals with cytokine production in ex-vivo T cell assay INF-g [2]: 0%
- # of individuals of 14 with positive BAT test ([3]; 1 ng/ml): 7
- # of individuals of 14 with positive BAT test ([3]; 10 ng/ml): 10
- # of individuals of 14 with positive BAT test ([3]; 100 ng/ml): 10
- # of individuals of 14 with positive BAT test ([3]; 1000 ng/ml): 10

B3: Derp2: major house dust mite allergen, group 2, Dermatophagoides pteronyssinus; control (protein, UniProt P49278 18-146, looked up)
Mite group 2 allergen Der p 2: DQVDVKDCANHEIKKVLVPGCHGSEPCIIHRGKPFQLEAVFEANQNTKTAKIEIKASIDGLEVDVPGIDPNACHYMKCPLVKGQQYDIKYTWNVPKIAPKSENVVVTVKVMGDDGVLACAIATHAKIRD
- % responders of in-vitro T cell proliferation test, Allergic [1]: 57%
- % responders of in-vitro T cell proliferation test, Non-allergics [1]: 0%
- % HDM allergic individuals with cytokine production in ex-vivo T cell assay IL-5 [2]: 56%
- % HDM allergic individuals with cytokine production in ex-vivo T cell assay IL-9 [2]: 31%
- % HDM allergic individuals with cytokine production in ex-vivo T cell assay IL-10 [2]: 56%
- % HDM allergic individuals with cytokine production in ex-vivo T cell assay IL-13 [2]: 50%
- % HDM allergic individuals with cytokine production in ex-vivo T cell assay IL-17 [2]: 0%
- % HDM allergic individuals with cytokine production in ex-vivo T cell assay IL-31 [2]: 6%
- % HDM allergic individuals with cytokine production in ex-vivo T cell assay INF-g [2]: 0%
- % non-allergic individuals with cytokine production in ex-vivo T cell assay IL-5 [2]: 0%
- % non-allergic individuals with cytokine production in ex-vivo T cell assay IL-9 [2]: 0%
- % non-allergic individuals with cytokine production in ex-vivo T cell assay IL-10 [2]: 17%
- % non-allergic individuals with cytokine production in ex-vivo T cell assay IL-13 [2]: 0%
- % non-allergic individuals with cytokine production in ex-vivo T cell assay IL-17 [2]: 0%
- % non-allergic individuals with cytokine production in ex-vivo T cell assay IL-31 [2]: 0%
- % non-allergic individuals with cytokine production in ex-vivo T cell assay INF-g [2]: 0%
- # of individuals of 14 with positive BAT test ([3]; 1 ng/ml): 13
- # of individuals of 14 with positive BAT test ([3]; 10 ng/ml): 13
- # of individuals of 14 with positive BAT test ([3]; 100 ng/ml): 13
- # of individuals of 14 with positive BAT test ([3]; 1000 ng/ml): 13

B4: A001: house dust mite protein; SEQ ID NO: 13 (Der f), 14 (Der p); recombinant test protein (protein)
chain: KKSPDCDIERPIRECLKDGLLRYSSGQKINQFPDTIQDLNRACEELKKSETCARTFIDTCTESSYEKRSLDSLLDGIQRVMKRLCRSQTKKEKLLENVGCANSVVQDTKQCLKNYRMLVFAANKLDNKNKIMRILCCKSRKVAPCIGEAMKAKGTAVCSAKNIDYFKDVHQNIKQEMTAVVCSDFERDQCENVDVPNISESEYKDQNIFNPLRDLYKKVILG
- % responders of in-vitro T cell proliferation test, Allergic [1]: 17%
- % responders of in-vitro T cell proliferation test, Non-allergics [1]: 0%
- % HDM allergic individuals with cytokine production in ex-vivo T cell assay IL-5 [2]: 6%
- % HDM allergic individuals with cytokine production in ex-vivo T cell assay IL-9 [2]: 0%
- % HDM allergic individuals with cytokine production in ex-vivo T cell assay IL-10 [2]: 75%
- % HDM allergic individuals with cytokine production in ex-vivo T cell assay IL-13 [2]: 6%
- % HDM allergic individuals with cytokine production in ex-vivo T cell assay IL-17 [2]: 25%
- % HDM allergic individuals with cytokine production in ex-vivo T cell assay IL-31 [2]: 0%
- % HDM allergic individuals with cytokine production in ex-vivo T cell assay INF-g [2]: 6%
- % non-allergic individuals with cytokine production in ex-vivo T cell assay IL-5 [2]: 0%
- % non-allergic individuals with cytokine production in ex-vivo T cell assay IL-9 [2]: 0%
- % non-allergic individuals with cytokine production in ex-vivo T cell assay IL-10 [2]: 100%
- % non-allergic individuals with cytokine production in ex-vivo T cell assay IL-13 [2]: 0%
- % non-allergic individuals with cytokine production in ex-vivo T cell assay IL-17 [2]: 50%
- % non-allergic individuals with cytokine production in ex-vivo T cell assay IL-31 [2]: 0%
- % non-allergic individuals with cytokine production in ex-vivo T cell assay INF-g [2]: 0%
- # of individuals of 14 with positive BAT test ([3]; 1 ng/ml): 0
- # of individuals of 14 with positive BAT test ([3]; 10 ng/ml): 0
- # of individuals of 14 with positive BAT test ([3]; 100 ng/ml): 1
- # of individuals of 14 with positive BAT test ([3]; 1000 ng/ml): 2

B5: A003: house dust mite protein; SEQ ID NO: 2 (Der f), 3 (Der p), 305 (Blo t) (protein)
chain: MAIDGKYQMESSEHFEEFVKEMGLDVDMTNVDLSKTSTMEICKDGDVYHIKSETAGIAHEIKFKVGEEFEDDMNGHKFKNVVTMECDNKMVQKKTSADGGKVVNVVREFTDAGCTVKSTYNTVTWTRVYKRM
- % responders of in-vitro T cell proliferation test, Allergic [1]: 3%
- % responders of in-vitro T cell proliferation test, Non-allergics [1]: 0%
- % HDM allergic individuals with cytokine production in ex-vivo T cell assay IL-5 [2]: 6%
- % HDM allergic individuals with cytokine production in ex-vivo T cell assay IL-9 [2]: 0%
- % HDM allergic individuals with cytokine production in ex-vivo T cell assay IL-10 [2]: 19%
- % HDM allergic individuals with cytokine production in ex-vivo T cell assay IL-13 [2]: 13%
- % HDM allergic individuals with cytokine production in ex-vivo T cell assay IL-17 [2]: 13%
- % HDM allergic individuals with cytokine production in ex-vivo T cell assay IL-31 [2]: 0%
- % HDM allergic individuals with cytokine production in ex-vivo T cell assay INF-g [2]: 0%
- % non-allergic individuals with cytokine production in ex-vivo T cell assay IL-5 [2]: 0%
- % non-allergic individuals with cytokine production in ex-vivo T cell assay IL-9 [2]: 0%
- % non-allergic individuals with cytokine production in ex-vivo T cell assay IL-10 [2]: 17%
- % non-allergic individuals with cytokine production in ex-vivo T cell assay IL-13 [2]: 0%
- % non-allergic individuals with cytokine production in ex-vivo T cell assay IL-17 [2]: 17%
- % non-allergic individuals with cytokine production in ex-vivo T cell assay IL-31 [2]: 0%
- % non-allergic individuals with cytokine production in ex-vivo T cell assay INF-g [2]: 0%
- # of individuals of 14 with positive BAT test ([3]; 1 ng/ml): 0
- # of individuals of 14 with positive BAT test ([3]; 10 ng/ml): 0
- # of individuals of 14 with positive BAT test ([3]; 100 ng/ml): 0
- # of individuals of 14 with positive BAT test ([3]; 1000 ng/ml): 1
